From patent US20230110188A1 (ARGENX IIP, published 2023) come the findings set out here.

Where a chain is given by its changes, count along the chain named.

First the molecules themselves.
B1: 3D10a (antibody, human IgG1, kappa, L234A L235A, V domains shown)
VH: EVQLVESGGGLVKPGGSLRLSCAASGFTFSASTMAWVRQAPGKGLEWVSSVSGDSHHIYYADSLKGRFTISRDNAKNSLYLQMNSLRAEDTAVYYCARERLLRLGVGFDSWGQGTLVTVSS
VL: DIQMTQSPSSLSASVGDRVTITCRASQRISGFVNWYQQKPGKAPKLLIYAASTLQSGVPSRFSGSGSGTDFTLTISSLQPEDFATYYCQQSYSPLYTFGQGTKLEIKR
B2: 3F6c (antibody, human IgG1, kappa, L234A L235A, V domains shown)
VH: EVQLVESGGGLVKPGGSLRLSCAASGFTFSSYTMDWVRQAPGKGLEWVSSIGSNGDYIYYADSVRGRFTISRDNAKNSLYLQMNSLRAEDTAVYYCARGQLAVAGTHFDYWGQGTLVTVSS
VL: B1 VL with R28K, I29V, S30N, G31K, F32Y, Y96S
B3: 3D9b (antibody, human IgG1, kappa, L234A L235A, V domains shown)
VH: EVQLVESGGGLVKPGGSLRLSCAASGFTFSTYTMHWVRQAPGKGLEWVSSISSRSAYKYYADSVKGRFTISRDNAKNSLYLQMNSLRAEDTAVYYCARDFFQLGPPRFDSWGQGTLVTVSS
VL: B1 VL with G31S, V33L, A50G, T53N, L95S
B4: 4D3 (antibody, human IgG1, kappa, L234A L235A, V domains shown)
VH: B1 VH with A31S, S32Y, A35T, V51I, G53S, D54G, S55G, H57Y, A61T, S110F
VL: B1 VL with R28S, F32Y, V33L, P94A

The first assay concerns the target T1, Human MuSK (R&D Systems, cat. 10189-MK, histidine tag) (human, UniProt O15146 24-495).
T1 construct: Bought protein; also called human monomeric MuSK-6xhis; not shown: histidine tag (6xhis)
T1 sequence: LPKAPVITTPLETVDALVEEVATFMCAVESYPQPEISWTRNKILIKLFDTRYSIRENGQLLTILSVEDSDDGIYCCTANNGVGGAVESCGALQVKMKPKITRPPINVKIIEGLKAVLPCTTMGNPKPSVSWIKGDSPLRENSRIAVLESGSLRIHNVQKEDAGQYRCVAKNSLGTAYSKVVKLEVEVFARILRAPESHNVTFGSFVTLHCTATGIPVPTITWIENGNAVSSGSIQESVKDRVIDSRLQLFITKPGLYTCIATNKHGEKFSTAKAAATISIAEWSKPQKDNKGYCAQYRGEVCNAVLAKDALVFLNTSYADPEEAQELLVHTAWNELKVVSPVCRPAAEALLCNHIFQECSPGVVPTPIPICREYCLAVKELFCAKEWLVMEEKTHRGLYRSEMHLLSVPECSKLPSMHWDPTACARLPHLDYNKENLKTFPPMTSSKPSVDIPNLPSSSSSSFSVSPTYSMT
Put plainly: SPR (Biacore), MuSK-coated chip, antibody alone (run of first antibody 3D10a). The procedure: (§1) A chip was coated with ˜5000 RU of human MuSK (Lot nr DHUCO 11908A, batch nr 1089_MK). In a first experiment the saturating concentration of the pre-leads was determined. This is the concentration where the amplitude of a specific pre-lead doesn't increase anymore when additional pre-lead is injected on the immobilized MuSK.
B1: the “amplitude of prelead without presaturating MuSK (RU)” value came out at 3130 RU.
Still for that read-out and setting: the value for B2 was 2510 RU; that for B3 was 2110 RU; that for B4 was 2620 RU.

The target of a further assay is T1, Human MuSK (R&D Systems, cat. 10189-MK, …). Put plainly: SPR (Biacore), antibody captured on anti-hFc chip; 10 nM; dissociation pH 5.5. An excerpt: (§2) In order to study pH dependent binding of our antibodies to MuSK, the Biacore was used with the same setup as described in the paragraph entitled “Binding affinity for mouse, human and rhesus monkey recombinant MuSK in Biacore”. 6. […] For the other antibodies there is no real difference observed between pH 7.4 and 5.5.
A general note: In SPR one partner is held on a chip, and binding of the other changes the refractive index at the surface.
Molecule B1 gave a koff of 0.00011 s⁻¹.
On the same count and under the same terms, the value for B2 was 0.00023 s⁻¹; that for B3 was 4e-05 s⁻¹; that for B4 was 0.00019 s⁻¹.

The target is the same in the next assay. Put plainly: SPR (Biacore), antibody captured on anti-hFc chip; 0.625 nM; dissociation pH 7.4.
From the text: as §2
The molecule B1 showed a koff of 0.00013 s⁻¹.
B2 displayed a koff of 4e-05 s⁻¹.
Same read-out and setting: as for B3, the figure is 0.00014 s⁻¹; as for B4, 0.00016 s⁻¹.

For another assay the target is unchanged. Put plainly: SPR (Biacore), MuSK-coated chip, antibody alone (run of first antibody 4D3). The procedure: as §1
For B1, the “amplitude of prelead without presaturating MuSK (RU)” value was 951 RU.
B2: the “amplitude of prelead without presaturating MuSK (RU)” value came to 1010 RU.
Same read-out and setting: the value for B3 was 1100 RU; that for B4 was 859 RU.

A further assay concerns the target T2, human monomeric MuSK FLAG streptavidin (in house produced, batch 27-6-2019) (human, UniProt O15146 24-495).
T2 construct: also called full length MuSK; not shown: FLAG and streptavidin tags
T2 sequence: T1 sequence
Put plainly: epitope binning ELISA (coated anti-MuSK Fab, MuSK, IgG, anti-Fc HRP); competitor: 4D3. The procedure: (§3) For epitope binning—An ELISA plate was coated at 1 μg/ml of the anti-MuSK Fabs and incubated overnight at 4° C. Next, the plate was wash with PBS followed by blocking with 1% casein in PBS for one hour. After washing the plate, 1 μg/ml of human monomeric MuSK (in house produced, batch 27-6-2019) was incubated for one hour at RT. The plate was washed and anti-MuSK antibodies at 0.3-10 μg/ml were added to the plate and incubated for one hour at RT. After washing the plate, detection antibody (goat anti-human Fc HRP (Jackson Immunoresearch cat. 109-035-098)) was added at 5000 fold dilution in PBS 0.1% casein. The plate was incubated for one hour at RT and washed with PBS-T. TMB was added and the reaction was stopped by adding H2504. […]
(§4) For the epitope binning ELISA, a plate was coated with anti-MuSK Fab and human monomeric MuSK was added after blocking the plate. Next the different antibodies were added and allowed to bind.
(In an ELISA, binding on a coated surface is turned into a signal by an enzyme label.)
Consider B1, for which the “OD 450 nm” value was 0.062 OD.
As for B2, the “OD 450 nm” value is 0.076 OD.
Still for that read-out and setting: as for B3, the figure is 0.086 OD; as for B4, 0.023 OD.

A further assay has as its target T2, human monomeric MuSK FLAG streptavidin …. Put plainly: epitope binning ELISA (coated anti-MuSK Fab, MuSK, IgG, anti-Fc HRP); competitor: 3F6c. The procedure: as §3, §4
Turning to B1, the “OD 450 nm” value came to 0.162 OD.
For the molecule B2, the “OD 450 nm” value is 0.156 OD.
Still for that read-out and setting: as for B3, the figure is 0.186 OD.
The same measure, in the same setting: as for B4, the figure is 0.1 OD.

Another assay deals with T1, Human MuSK (R&D Systems, cat. 10189-MK, …). Put plainly: SPR (Biacore), MuSK-coated chip, antibody alone (run of first antibody 3F6c). The procedure:
as §1
In the case of B1, the “amplitude of prelead without presaturating MuSK (RU)” value turned out to be 2370 RU.
With B2, the “amplitude of prelead without presaturating MuSK (RU)” value came to 3640 RU.
On the same count and under the same terms, as for B3, the figure is 1660 RU.
In the case of B4, the “amplitude of prelead without presaturating MuSK (RU)” value was 2390 RU.

In another assay the target is T2, human monomeric MuSK FLAG streptavidin …. Put plainly: epitope binning ELISA (coated anti-MuSK Fab, MuSK, IgG, anti-Fc HRP); competitor: 3B5wt. The procedure:
as §3, §4
With B1, the “OD 450 nm” value is 2.12 OD.
Still for that read-out and setting: the value for B2 was 2.2 OD; that for B3 was 2.66 OD.
For B4, the “OD 450 nm” value is 0.882 OD.

Another assay addresses T1, Human MuSK (R&D Systems, cat. 10189-MK, …). Briefly: SPR (Biacore), pH 5.5 (summary table, repeats the average of Table 17).
From the text: as §2
For the molecule B1, the koff was found to be 9e-05 s⁻¹.
The molecule B2 returned a koff of 0.0002 s⁻¹. Against the preceding molecule, the koff is about 2.2-fold higher.
As for B3, the koff stood at 4e-05 s⁻¹.
In turn, B4 registered a koff of 0.00016 s⁻¹.

The target is the same in a further assay. Briefly: SPR (Biacore), antibody captured on anti-hFc chip; 0.3125 nM; dissociation pH 5.5.
From the text: as §2
B1 registered a koff of 6e-05 s⁻¹.
B2: the koff was 0.00023 s⁻¹. Compared with the last molecule, the koff is about 3.8-fold higher.
As for B3, the koff was determined as 3e-05 s⁻¹.
On the same count and under the same terms, the value for B4 was 0.00018 s⁻¹.

The term koff denotes the rate constant with which the complex falls apart. A lower koff goes with a long-lived complex.
